Measured values reported in publication PMC10397247.
Like-named read-outs stand apart in the source and are kept apart here.

B1: AP5-AA (peptide)
chain: DEIAALEAKNAALKAELAAIEAKIAAKKG
B2: P1-AA-12HGe-K (peptide)
chain: DEIAALEAKNAALKAKNAALKAEIAALEG
B3: P1-AA-12HGe-H (peptide)
chain: DEIAALEAHNAALHAHNAALHAEIAALEG
B4: P1-AA-12HGe-W (peptide)
chain: DEIAALEAWNAALWAWNAALWAEIAALEG
B5: P1-AA-12HGe-M (peptide)
chain: DEIAALEAMNAALMAMNAALMAEIAALEG
B6: P1-AA-12HGe-T (peptide)
chain: DEIAALEATNAALTATNAALTAEIAALEG
B7: P1-AA-12HGe-Q (peptide)
chain: DEIAALEAQNAALQAQNAALQAEIAALEG
B8: P1-AA-12HGe-A (peptide)
chain: DEIAALEAANAALAAANAALAAEIAALEG
B9: P1-AA-12HGe-Y (peptide)
chain: DEIAALEAYNAALYAYNAALYAEIAALEG
B10: P1-AA-12HGe-R (peptide)
chain: DEIAALEARNAALRARNAALRAEIAALEG
B11: P1-AA-12HGe-D (peptide)
chain: DEIAALEADNAALDADNAALDAEIAALEG
B12: P1-AA-12HGe-S (peptide)
chain: DEIAALEASNAALSASNAALSAEIAALEG

Assays:
Assay in all cases: two-hybrid library CCmax;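 note: natural log of median RNA to DNA barcode read ratio; higher means stronger binding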
[1] = target: T1, AP5-AA
T1 chain: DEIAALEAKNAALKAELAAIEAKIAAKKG

[2] = target: T2, AP6-AA; settings: mean of both orientations
T2 chain: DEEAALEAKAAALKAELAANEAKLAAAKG

[3] = target: T3, AP7-AA; settings: mean of both orientations
T3 chain: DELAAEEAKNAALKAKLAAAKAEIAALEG

[4] = target: T4, AP8-AA; settings: mean of both orientations
T4 chain: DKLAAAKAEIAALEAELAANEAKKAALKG

[5] = target: GCN2_T
[6] = target: T5, P1-AA; settings: mean of both orientations
T5 chain: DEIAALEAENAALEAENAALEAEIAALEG

[7] = target: T6, P10-AA; settings: mean of both orientations
T6 chain: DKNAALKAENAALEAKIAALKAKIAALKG

[8] = target: T7, P11-AA; settings: mean of both orientations
T7 chain: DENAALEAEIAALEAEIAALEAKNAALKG

[9] = target: T8, P12-AA; settings: mean of both orientations
T8 chain: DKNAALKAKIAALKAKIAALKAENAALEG

[10] = target: T9, P2-AA; settings: mean of both orientations
T9 chain: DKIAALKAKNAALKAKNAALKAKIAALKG

[11] = target: T10, P3-AA; settings: mean of both orientations
T10 chain: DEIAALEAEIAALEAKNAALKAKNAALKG

[12] = target: T11, P4-AA; settings: mean of both orientations
T11 chain: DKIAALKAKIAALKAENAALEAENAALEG

[13] = target: T12, P7-AA; settings: mean of both orientations
T12 chain: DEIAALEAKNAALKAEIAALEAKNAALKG

[14] = target: T13, P8-AA; settings: mean of both orientations
T13 chain: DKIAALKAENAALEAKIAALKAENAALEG

[15] = target: T14, P9-AA; settings: mean of both orientations
T14 chain: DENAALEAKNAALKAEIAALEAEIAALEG

[16] = target: T15, P2-AA-12HGe-A; settings: mean of both orientations
T15 chain: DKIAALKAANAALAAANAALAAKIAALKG

[17] = target: T16, P2-AA-12HGe-D
T16 chain: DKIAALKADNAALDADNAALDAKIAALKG

[18] = target: T17, P2-AA-12HGe-E; settings: mean of both orientations
T17 chain: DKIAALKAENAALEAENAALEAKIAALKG

[19] = target: T18, P2-AA-12HGe-H; settings: mean of both orientations
T18 chain: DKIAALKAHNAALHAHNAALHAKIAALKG

[20] = target: T19, P2-AA-12HGe-M; settings: mean of both orientations
T19 chain: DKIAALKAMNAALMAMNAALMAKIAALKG

[21] = target: T20, P2-AA-12HGe-Q; settings: mean of both orientations
T20 chain: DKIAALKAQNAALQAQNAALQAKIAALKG

[22] = target: T21, P2-AA-12HGe-R; settings: mean of both orientations
T21 chain: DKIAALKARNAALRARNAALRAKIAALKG

[23] = target: T22, P2-AA-12HGe-S
T22 chain: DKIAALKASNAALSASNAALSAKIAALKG

[24] = target: T23, P2-AA-12HGe-T; settings: mean of both orientations
T23 chain: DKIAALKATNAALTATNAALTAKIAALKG

[25] = target: T24, P2-AA-12HGe-W; settings: mean of both orientations
T24 chain: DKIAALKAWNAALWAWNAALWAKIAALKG

Row | Binder | interaction score [10] | interaction score [16] | interaction score ([17]; mean of both orientations) | interaction score [18] | interaction score [19] | interaction score [20] | interaction score [21] | interaction score [22] | interaction score ([23]; mean of both orientations) | interaction score [24] | interaction score [25] | also measured
1 | B1 | -1.24 | – | – | – | – | – | – | – | – | – | – | interaction score [1]: -0.918; interaction score [2]: 1.53; interaction score [3]: -1.69; interaction score [4]: -1.08; interaction score [5]: -0.794; interaction score [6]: -1.35; interaction score [7]: 1.37; interaction score [8]: -0.907; interaction score [9]: -1.41; interaction score [11]: -1.62; interaction score [12]: -0.912; interaction score [13]: -0.672; interaction score [14]: 2.11; interaction score [15]: -0.644
2 | B2 | -0.289 | 1.6 | 0.189 | 2.31 | -1.62 | 0.464 | 1.06 | -1.01 | 0.655 | -0.493 | -2.11 | –
3 | B3 | -1.14 | 0.105 | -1.6 | 2 | -1.82 | -0.622 | 0.16 | -1.54 | -1.37 | -1.51 | -1.45 | –
4 | B4 | -1.08 | 1.75 | -1.76 | 1.5 | -1.02 | 0.936 | 1.69 | 0.108 | -0.243 | -0.385 | -0.0819 | –
5 | B5 | 1.39 | 1.71 | -1.52 | 2.2 | 0.866 | 1.82 | 2.16 | 1.45 | 1.02 | 1.77 | 0.93 | –
6 | B6 | -0.397 | 0.941 | -1.6 | 1.26 | -1.51 | -0.103 | 0.761 | -0.61 | -0.683 | -0.824 | -1.56 | –
7 | B7 | 1.92 | 1.99 | -1.92 | 2.09 | 0.459 | 1.64 | 1.8 | 1.56 | 0.227 | 1.03 | -0.264 | –
8 | B8 | 1.49 | 1.6 | -1.64 | 1.62 | 0.332 | 1.4 | 1.96 | 0.662 | – | 1.71 | 0.0222 | interaction score [23]: -0.384
9 | B9 | -0.194 | -0.289 | -1.65 | 2.36 | -1.21 | 1.77 | 0.637 | -0.521 | -1.06 | -0.661 | -0.349 | –
10 | B10 | -0.71 | 1.68 | 1.05 | 2.08 | -0.986 | -0.0699 | 1.28 | -0.893 | 1.19 | 0.3 | -1.15 | –
11 | B11 | 1.36 | -2.7 | -1.75 | -1.55 | -1.41 | -2.19 | -1.62 | 1.33 | -1.99 | -1.52 | -2.14 | –
12 | B12 | 0.744 | -0.678 | – | 0.07 | -1.82 | -0.332 | 0.702 | 1 | -1.39 | -1.11 | -1.58 | interaction score [17]: -1.82
